In PMC9278858:

Biological target: Rpc160-HTP (largest subunit of RNAPIII, C-terminally His6–TEV–Protein A tagged) (S. cerevisiae) (UniProt P04051)
Experiment: affinity purification with mass spectrometry; Rpc160-HTP as bait; as a3 but lysate treated with RNase A (20 μg/ml, 20 min at 25°C); label-free quantitative MS

UniProt P04051, sequence (P04051 whole entry): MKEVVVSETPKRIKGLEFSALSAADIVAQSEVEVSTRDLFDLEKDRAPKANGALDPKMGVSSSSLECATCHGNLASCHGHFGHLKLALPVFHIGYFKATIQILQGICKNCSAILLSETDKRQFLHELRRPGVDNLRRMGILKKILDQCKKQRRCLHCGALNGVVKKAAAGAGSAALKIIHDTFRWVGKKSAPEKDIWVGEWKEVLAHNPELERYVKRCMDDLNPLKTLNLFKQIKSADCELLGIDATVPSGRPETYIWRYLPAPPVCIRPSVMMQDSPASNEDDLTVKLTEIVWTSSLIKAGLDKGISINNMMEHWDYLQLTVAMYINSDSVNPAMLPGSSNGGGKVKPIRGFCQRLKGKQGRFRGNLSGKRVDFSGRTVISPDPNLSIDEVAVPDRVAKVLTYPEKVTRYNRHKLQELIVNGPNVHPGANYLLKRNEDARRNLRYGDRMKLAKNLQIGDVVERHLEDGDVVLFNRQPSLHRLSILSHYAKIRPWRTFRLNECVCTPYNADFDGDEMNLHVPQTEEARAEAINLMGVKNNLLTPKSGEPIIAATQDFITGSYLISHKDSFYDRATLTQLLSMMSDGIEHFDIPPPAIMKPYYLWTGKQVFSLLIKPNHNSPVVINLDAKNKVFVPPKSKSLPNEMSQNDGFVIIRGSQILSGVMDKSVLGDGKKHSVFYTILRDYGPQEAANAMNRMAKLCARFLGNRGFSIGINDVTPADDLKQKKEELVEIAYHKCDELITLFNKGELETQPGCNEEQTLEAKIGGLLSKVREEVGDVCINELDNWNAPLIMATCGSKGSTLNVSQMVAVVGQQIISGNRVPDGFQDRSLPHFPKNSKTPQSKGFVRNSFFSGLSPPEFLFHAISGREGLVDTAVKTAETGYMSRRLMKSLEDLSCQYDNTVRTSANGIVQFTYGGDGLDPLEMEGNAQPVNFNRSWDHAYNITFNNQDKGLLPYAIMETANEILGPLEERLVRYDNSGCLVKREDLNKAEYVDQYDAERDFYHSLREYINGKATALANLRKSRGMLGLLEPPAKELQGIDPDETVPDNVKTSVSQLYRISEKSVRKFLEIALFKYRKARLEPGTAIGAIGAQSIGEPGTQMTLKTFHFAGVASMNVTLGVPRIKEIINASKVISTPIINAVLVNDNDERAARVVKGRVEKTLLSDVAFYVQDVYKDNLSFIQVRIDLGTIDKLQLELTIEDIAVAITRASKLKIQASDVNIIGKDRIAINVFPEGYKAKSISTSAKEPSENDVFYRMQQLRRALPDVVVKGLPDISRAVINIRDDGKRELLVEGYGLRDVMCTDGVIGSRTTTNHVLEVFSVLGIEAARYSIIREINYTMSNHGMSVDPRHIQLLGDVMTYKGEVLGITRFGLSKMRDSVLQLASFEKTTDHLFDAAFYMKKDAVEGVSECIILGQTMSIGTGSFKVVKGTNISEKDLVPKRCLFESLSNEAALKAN

- fold decrease of RNAPIII-bound Sen1 with RNase A treatment against no treatment: 2 fold
Substance: Sen1 (untagged, in cells expressing Rpc160-HTP, SEN1 background) (from UniProt Q00416 1-2231) (natural protein)
